Several values for one entry are separate records, joined by “and”; a condition that tells them apart may be missing. Equal values may be shown once. Read-outs that look alike come from different tables or passages of the source. Blank lines part the entries; values can stand above or below the substance they belong to.
Columns and labels:
Test in all cases: native MS
[1] = target: Alcohol dehydrogenase 1 (S. cerevisiae) (S. cerevisiae) (UniProt P00330)
[2] = target: Alcohol dehydrogenase 1 (S. cerevisiae) (S. cerevisiae) (UniProt P00330); remark: listed apart in the source
[3] = target: Trastuzumab light chain, dissociated from the mAb
[4] = target: Truncated alcohol dehydrogenase 1 (S. cerevisiae) (S. cerevisiae)

Truncated alcohol dehydrogenase 1 (S. cerevisiae) (domain or fragment), sequence (P00330 2-348): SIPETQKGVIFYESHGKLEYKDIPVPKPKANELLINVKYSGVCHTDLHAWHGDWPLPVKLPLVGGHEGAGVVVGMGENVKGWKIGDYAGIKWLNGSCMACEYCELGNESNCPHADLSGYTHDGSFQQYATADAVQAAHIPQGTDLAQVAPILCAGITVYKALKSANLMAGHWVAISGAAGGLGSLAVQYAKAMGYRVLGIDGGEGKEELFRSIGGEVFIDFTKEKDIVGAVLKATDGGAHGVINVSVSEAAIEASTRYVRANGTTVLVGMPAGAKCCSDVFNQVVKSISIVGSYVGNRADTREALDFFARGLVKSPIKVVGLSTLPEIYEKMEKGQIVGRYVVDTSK

- stoichiometry N [1]: 2 and 4
- percent detected as homotetramer [2]: 92%
- stoichiometry N [2]: 4
Substance: Alcohol dehydrogenase 1 (S. cerevisiae) (from UniProt P00330 2-348) (enzyme)

- stoichiometry N [3]: 2
Substance: Trastuzumab light chain, dissociated from the mAb (domain or fragment)

- stoichiometry N [4]: 4
Substance: Truncated alcohol dehydrogenase 1 (S. cerevisiae) (domain or fragment)

Source: article PMC5709234
